This note sets out measurements from US20250320284A1 (AC IMMUNE, published 2025).

One may read the EC50 as the concentration at which the effect is half-maximal. Lower therefore signals a more potent agent. As a reminder, the Kd is the constant that tells how readily two partners part at equilibrium. The low end stands for a tighter complex, the high end for a looser complex. By koff is commonly meant a measure of how fast the partners let go of each other. The low end stands for a long-lived complex, the high end for a short-lived complex. As a reminder, the kon is the second-order rate constant of association. A lower kon goes with slower complex formation.

Assay [1] has as its target T1, human ASC (apoptosis associated speck-like protein containing a caspase-recruitment domain) (human, UniProt Q9ULZ3 1-195).
T1 construct: recombinant hASC in ELISA and SPR; endogenous ASC (cytoplasmic or specks) in Western blot and immunofluorescence; also called hASC; PYCARD
The assay is described as follows: ELISA, coated hASC.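 Also: antibody binding to plate-coated recombinant human ASC, read as phosphatase substrate absorbance, EC50 from four-parameter variable-slope fit.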 For orientation: An ELISA detects its analyte on a solid surface through an enzyme-linked reagent.

Another assay addresses T2, mouse ASC (mouse, UniProt Q9EPB4 1-193).
T2 construct: recombinant mASC in ELISA and SPR; endogenous ASC of J774.A1 cells in Western blot and immunofluorescence; also called mASC
T2 sequence: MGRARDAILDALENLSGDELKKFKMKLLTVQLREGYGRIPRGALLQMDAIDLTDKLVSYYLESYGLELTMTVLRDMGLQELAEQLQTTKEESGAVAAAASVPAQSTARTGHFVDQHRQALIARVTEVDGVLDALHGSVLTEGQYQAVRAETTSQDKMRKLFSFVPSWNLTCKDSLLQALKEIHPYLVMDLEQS
The assay is described as follows: ELISA, coated mASC.

The target in the next assay is T3, CARD domain of human ASC (human, UniProt Q9ULZ3 107-195).
T3 construct: biotinylated in BLI; also called hCARD; human CARD
T3 sequence: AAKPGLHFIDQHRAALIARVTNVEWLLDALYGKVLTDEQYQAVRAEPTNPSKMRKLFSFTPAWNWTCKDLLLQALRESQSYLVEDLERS
The assay is described as follows: ELISA, coated hCARD.

In assay [2] the target is T1, human ASC (apoptosis associated …). The assay is described as follows: SPR, hASC immobilized, Fab in flow.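 Also: hASC amine-coupled on a CM5 chip (about 500 RU), Fab analytes measured by single-cycle kinetics in PBS-P+ running buffer, glycine pH 1.7 regeneration between Fabs.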 For orientation: SPR reads the build-up and loss of mass on a sensor chip optically.

T1 sequence (Q9ULZ3 whole entry, the tested form may be a part): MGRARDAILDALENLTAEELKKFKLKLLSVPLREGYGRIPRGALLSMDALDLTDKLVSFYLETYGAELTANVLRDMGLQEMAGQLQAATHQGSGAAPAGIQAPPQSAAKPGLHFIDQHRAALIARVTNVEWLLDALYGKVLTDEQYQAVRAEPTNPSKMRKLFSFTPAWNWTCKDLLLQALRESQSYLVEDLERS

B1: ACI-8018-2221B7F1-AB1 (antibody, V domains shown)
VH: EVQLVESGGGLVKPGGSLKLSCAASGFTFSDSYMYWLRQTPEKRLEWVASISDGGRYTYYSDSVKGRFTISRDNVKNNLYLQMTSLRSEDTAIYYCARGLDYWGQGTTLTVSS
VL: DIKMTQSPSSMYASLGERVTITCKASQDINSYLSWFQQKPGKSPKTLIYRANRLVDGVPSRFSGSGSGQDYSLTISSLEYEDMGIYYCLQYAESTWTFGGGTKLEIK
For the molecule B1, the EC50 in assay [1] was found to be 140 pM. For the same molecule, the binding result in the assay with mouse ASC is “no binding”.

B2: ACI-8016-2614C3B2-AB1 (antibody, V domains shown)
VH: QVQLQQSDAELVKPGASVKISCKVSGYALTDHSIHWMKQRPEQGLAWIGYMYPGDGSANYNDKFKGKATLTADISSSTAYMQLNSLTSEDSAVYFCTRPYYFGSSYDYFGYWGQGTTLTVSS
VL: DIQMNQSPSSLSASLGDTITITCHASQNINVWLSWYQQKPGNVPKLLIYKASKLHTGVSSNFSGSGSGTGFTLTISSLQPEDIGTYYCQQGQSYPYTFGGGTKLEIK
For B2, the EC50 in assay [1] is 1980 pM; with mouse ASC it was 2670 pM; with CARD domain of human ASC, 2210 pM.

B3: ACI-8016-32B6C7-AB1 chimeric Fab (Fab, V domains shown)
VH: QVQLQQSDAELVKPGASVKISCKISGYTFTDQTIHWMNQRPEQGLEWIGYIYPGDGSAMYNEKFRGKATLTADKSSSTAYMQLNSLTSEDSAVYFCARPLYSYASYYWFAYWGQGTLVTVSA
VL: DIQMNQSPSSLSASLGDTITITCHASQNINVWLSWYQRKPGNIPKLLIYKSSNLHTGVPSRFSGSGSGTGFTLTISSLQPEDIATYYCQQGQSYPLTFGGGTKLEIK
notes: Fab
As to B3, in assay [2], the Kd is 1010 pM, the koff came out at 2.11e-05 s⁻¹ and the kon came to 20900 M⁻¹ s⁻¹.

B4: ACI-8016-1112B3D7-AB1 (antibody, V domains shown)
VH: QVQLQQSGAELVRPGTSVKLSCKASGYTFTSYWMHWVKQRPGQGLEWIGGIDPSDSYTKYNQKFKAKATLTADTSSSTAYMQLSSLTSEDSAIFYCAREEASTVVAHWYFDVWGTGTTVTVSS
VL: DIVLTQSPATLSVTPGDSVSLSCRASQSISNNLHWYQQKSHESPRLLIKYTSQSISGIPSRFSGSGSGTDYTLSINSVETEDFGMYFCQQSNNWPYTFGGGTKLEIK
For the molecule B4, the concentration for a half-maximal effect (EC50) in assay [1] worked out at 70 pM. Also, the binding result with mouse ASC is on record as “no binding”.

B5: hACI-8016-32B6C7-AB1_H9L3 Fab (Fab, V domains shown)
VH: EVQLVQSGAEVKKPGESLKISCKISGYSFTDQTIHWVHQMPGKGLEWMGYIYPGDGSAMYNEKFQGQVTISADKSISTAYLQWSSLKASDTAMYYCARPLYSYASYYWFAYWGQGTLVTVSS
VL: EIVLTQSPATLSLSPGERATLSCHASQNINVWLSWYQQKPGQAPRLLIYKSSNLHTGIPARFSGSGSGTDFTLTISSLEPEDFAVYYCQQGQSYPLTFGQGTKLEIK
In assay [2], B5 returned a Kd of 91 pM, a koff of 8.87e-06 s⁻¹ and a kon of 99100 M⁻¹ s⁻¹.

B6: hACI-8016-32B6C7-AB1_H5L4 Fab (Fab, V domains shown)
VH: QVQLVQSGAEVKKPGSSVKVSCKISGYTFTDQTIHWVRQAPGQGLEWMGYIYPGDGSAMYNEKFQGRVTITADKSTSTAYMELSSLRSEDTAVYYCARPLYSYASYYWFAYWGQGTLVTVSS
VL: EIVLTQSPATLSLSPGERATLSCHASQNINVYLSWYQQKPGQAPRLLIYKSSNLHTGIPARFSGSGSGTDFTLTISSLEPEDFAVYYCQQGQSYPLTFGQGTKLEIK
With B6, in assay [2], the Kd stood at 79 pM, the koff was 6.68e-06 s⁻¹ and the on-rate (kon) came to 84500 M⁻¹ s⁻¹.

B7: hACI-8016-32B6C7-AB1_H2L3 Fab (Fab, V domains shown)
VH: EVQLVQSGAEVKKPGESLKISCKISGYTFTDQTIHWVHQMPGKGLEWMGYIYPGDGSAMYNEKFQGQVTISADKSISTAYLQWSSLKASDTAMYYCARPLYSYASYYWFAYWGQGTLVTVSS
VL: EIVLTQSPATLSLSPGERATLSCHASQNINVWLSWYQQKPGQAPRLLIYKSSNLHTGIPARFSGSGSGTDFTLTISSLEPEDFAVYYCQQGQSYPLTFGQGTKLEIK
Turning to B7, in assay [2], binding was characterised by a dissociation constant (Kd) of 105 pM, the koff turned out to be 8.64e-06 s⁻¹ and the kon was 82200 M⁻¹ s⁻¹.

B8: hACI-8016-32B6C7-AB1_H8L4 Fab (Fab, V domains shown)
VH: QVQLVQSGAEVKKPGSSVKVSCKISGYTFTDQTIHWVRQAPGQGLEWMGYIYPGDASAMYNEKFQGRVTITADKSTSTAYMELSSLRSEDTAVYYCARPLYSYASYYWFAYWGQGTLVTVSS
VL: EIVLTQSPATLSLSPGERATLSCHASQNINVYLSWYQQKPGQAPRLLIYKSSNLHTGIPARFSGSGSGTDFTLTISSLEPEDFAVYYCQQGQSYPLTFGQGTKLEIK
In assay [2], B8 had a Kd of 77 pM, a koff of 7.03e-06 s⁻¹ and a kon of 94000 M⁻¹ s⁻¹.

B9: hACI-8016-32B6C7-AB1_H15L3 Fab (Fab, V domains shown)
VH: QVQLVQSGAEVKKPGSSVKVSCKASGYTFTDQTIHWVRQAPGQGLEWMGYIYPGDASAMYNEKFQGRVTITADKSTSTAYMELSSLRSEDTAVYYCARPLYSYASYYWFAYWGQGTLVTVSS
VL: EIVLTQSPATLSLSPGERATLSCHASQNINVWLSWYQQKPGQAPRLLIYKSSNLHTGIPARFSGSGSGTDFTLTISSLEPEDFAVYYCQQGQSYPLTFGQGTKLEIK
Take B9: in assay [2], the Kd came out at 52 pM, the koff stood at 4.82e-06 s⁻¹ and the kon came out at 103000 M⁻¹ s⁻¹.

B10: hACI-8016-32B6C7-AB1_H13L3 Fab (Fab, V domains shown)
VH: EVQLVQSGAEVKKPGESLKISCKISGYSFTDQTIHWVHQMPGKGLEWMGYIYPGDSSAMYNEKFQGQVTISADKSISTAYLQWSSLKASDTAMYYCARPLYSYASYYWFAYWGQGTLVTVSS
VL: EIVLTQSPATLSLSPGERATLSCHASQNINVWLSWYQQKPGQAPRLLIYKSSNLHTGIPARFSGSGSGTDFTLTISSLEPEDFAVYYCQQGQSYPLTFGQGTKLEIK
In assay [2], B10 yielded a Kd of 77 pM, a koff of 8.01e-06 s⁻¹ and a kon of 105000 M⁻¹ s⁻¹.

B11: hACI-8016-32B6C7-AB1_H6L3 Fab (Fab, V domains shown)
VH: QVQLVQSGAEVKKPGSSVKVSCKASGYTFTDQTIHWVRQAPGQGLEWMGYIYPGDGSAMYNEKFQGRVTITADKSTSTAYMELSSLRSEDTAVYYCARPLYSYASYYWFAYWGQGTLVTVSS
VL: EIVLTQSPATLSLSPGERATLSCHASQNINVWLSWYQQKPGQAPRLLIYKSSNLHTGIPARFSGSGSGTDFTLTISSLEPEDFAVYYCQQGQSYPLTFGQGTKLEIK
In assay [2], B11 displayed a Kd of 86 pM, a koff of 7.52e-06 s⁻¹ and a kon of 87200 M⁻¹ s⁻¹.

B12: hACI-8016-32B6C7-AB1_H6L4 Fab (Fab, V domains shown)
VH: QVQLVQSGAEVKKPGSSVKVSCKASGYTFTDQTIHWVRQAPGQGLEWMGYIYPGDGSAMYNEKFQGRVTITADKSTSTAYMELSSLRSEDTAVYYCARPLYSYASYYWFAYWGQGTLVTVSS
VL: EIVLTQSPATLSLSPGERATLSCHASQNINVYLSWYQQKPGQAPRLLIYKSSNLHTGIPARFSGSGSGTDFTLTISSLEPEDFAVYYCQQGQSYPLTFGQGTKLEIK
In assay [2], B12 yielded a Kd of 67 pM, a koff of 5.28e-06 s⁻¹ and a kon of 79200 M⁻¹ s⁻¹.

B13: hACI-8016-32B6C7-AB1_H4L3 Fab (Fab, V domains shown)
VH: QVQLVQSGAEVKKPGSSVKVSCKISGYSFTDQTIHWVRQAPGQGLEWMGYIYPGDGSAMYNEKFQGRVTITADKSTSTAYMELSSLRSEDTAVYYCARPLYSYASYYWFAYWGQGTLVTVSS
VL: EIVLTQSPATLSLSPGERATLSCHASQNINVWLSWYQQKPGQAPRLLIYKSSNLHTGIPARFSGSGSGTDFTLTISSLEPEDFAVYYCQQGQSYPLTFGQGTKLEIK
In the case of B13, in assay [2], binding was put at a Kd of 77 pM, the koff was determined as 8.16e-06 s⁻¹ and the kon was found to be 108000 M⁻¹ s⁻¹.

B14: hACI-8016-32B6C7-AB1_H13L4 Fab (Fab, V domains shown)
VH: EVQLVQSGAEVKKPGESLKISCKISGYSFTDQTIHWVHQMPGKGLEWMGYIYPGDSSAMYNEKFQGQVTISADKSISTAYLQWSSLKASDTAMYYCARPLYSYASYYWFAYWGQGTLVTVSS
VL: EIVLTQSPATLSLSPGERATLSCHASQNINVYLSWYQQKPGQAPRLLIYKSSNLHTGIPARFSGSGSGTDFTLTISSLEPEDFAVYYCQQGQSYPLTFGQGTKLEIK
As for B14, in assay [2], the affinity, expressed as Kd, was 84 pM; the koff was 7.09e-06 s⁻¹; the kon worked out at 84100 M⁻¹ s⁻¹.

B15: hACI-8016-32B6C7-AB1_H7L4 Fab (Fab, V domains shown)
VH: QVQLVQSGAEVKKPGSSVKVSCKISGYTFTDQTIHWVRQAPGQGLEWMGYIYPGDSSAMYNEKFQGRVTITADKSTSTAYMELSSLRSEDTAVYYCARPLYSYASYYWFAYWGQGTLVTVSS
VL: EIVLTQSPATLSLSPGERATLSCHASQNINVYLSWYQQKPGQAPRLLIYKSSNLHTGIPARFSGSGSGTDFTLTISSLEPEDFAVYYCQQGQSYPLTFGQGTKLEIK
Regarding B15, in assay [2], binding was characterised by a dissociation constant (Kd) of 67 pM, the koff turned out to be 5.62e-06 s⁻¹ and the kon amounted to 84300 M⁻¹ s⁻¹.

B16: hACI-8016-32B6C7-AB1_H14L3 Fab (Fab, V domains shown)
VH: QVQLVQSGAEVKKPGSSVKVSCKASGYTFTDQTIHWVRQAPGQGLEWMGYIYPGDSSAMYNEKFQGRVTITADKSTSTAYMELSSLRSEDTAVYYCARPLYSYASYYWFAYWGQGTLVTVSS
VL: EIVLTQSPATLSLSPGERATLSCHASQNINVWLSWYQQKPGQAPRLLIYKSSNLHTGIPARFSGSGSGTDFTLTISSLEPEDFAVYYCQQGQSYPLTFGQGTKLEIK
With B16, in assay [2], the Kd was 49 pM, the koff came to 4.96e-06 s⁻¹ and the kon amounted to 101000 M⁻¹ s⁻¹.

B17: hACI-8016-32B6C7-AB1_H9L4 Fab (Fab, V domains shown)
VH: EVQLVQSGAEVKKPGESLKISCKISGYSFTDQTIHWVHQMPGKGLEWMGYIYPGDGSAMYNEKFQGQVTISADKSISTAYLQWSSLKASDTAMYYCARPLYSYASYYWFAYWGQGTLVTVSS
VL: EIVLTQSPATLSLSPGERATLSCHASQNINVYLSWYQQKPGQAPRLLIYKSSNLHTGIPARFSGSGSGTDFTLTISSLEPEDFAVYYCQQGQSYPLTFGQGTKLEIK
Take B17: in assay [2], the Kd came to 81 pM, the koff was 7.52e-06 s⁻¹ and the kon is 92000 M⁻¹ s⁻¹.
